{
  "source": "paper PMC9515155",
  "key": {"IgE_(TRAP) (human)": {"biological_target": "IgE_(TRAP) (human) (UniProt P12319)", "experiment": "SPR; ProteOn XPR36, GLC chip; 500 RU of IgE_(TRAP) immobilised in acetate buffer pH 4.0 (850 RU of omalizumab at pH 5.5); human IgE flowed over; PBS with 0.005% Tween-20, 30 μL/min"}, "[1]": {"biological_target": "human IgE (Calbiochem) (human)", "sequence (P01854 whole entry, the tested form may be a part)": "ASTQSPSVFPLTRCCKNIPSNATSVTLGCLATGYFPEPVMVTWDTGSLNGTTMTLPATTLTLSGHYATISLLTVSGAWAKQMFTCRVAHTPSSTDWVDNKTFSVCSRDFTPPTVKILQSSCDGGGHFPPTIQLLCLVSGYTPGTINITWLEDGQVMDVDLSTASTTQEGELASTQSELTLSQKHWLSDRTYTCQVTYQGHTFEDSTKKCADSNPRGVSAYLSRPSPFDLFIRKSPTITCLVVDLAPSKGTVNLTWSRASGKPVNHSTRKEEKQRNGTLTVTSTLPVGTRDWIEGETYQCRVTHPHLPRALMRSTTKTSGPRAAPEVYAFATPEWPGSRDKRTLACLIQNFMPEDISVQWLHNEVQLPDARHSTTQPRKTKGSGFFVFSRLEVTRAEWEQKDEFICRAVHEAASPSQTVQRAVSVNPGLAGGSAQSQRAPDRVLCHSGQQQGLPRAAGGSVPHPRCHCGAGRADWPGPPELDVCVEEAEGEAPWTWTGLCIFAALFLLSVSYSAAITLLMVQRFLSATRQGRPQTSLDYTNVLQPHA", "experiment": "SPR", "conditions": "Fc fusion"}},
  "data": [
    {"substance": "human IgE (Calbiochem) (natural protein)", "values": [
      {"measurement": "fold higher binding affinity than omalizumab", "setting": "IgE_(TRAP) (human)", "result": 69, "unit": "fold"},
      {"measurement": "fold lower association rate constant (Ka) than omalizumab", "setting": "IgE_(TRAP) (human)", "result": 1.5, "unit": "fold"},
      {"measurement": "fold lower dissociation rate constant (Kd) than omalizumab", "setting": "IgE_(TRAP) (human)", "result": 105, "unit": "fold"}
    ]},
    {"substance": "IgE_(TRAP) (from UniProt P12319 25-205; P01880 133-170; P01861 121-327)", "values": [
      {"measurement": "Kd", "setting": "[1]", "result": 0.215, "unit": "nM"},
      {"measurement": "koff", "setting": "[1]", "result": "5.69e-05", "unit": "s⁻¹"}
    ]}
  ]
}
